± gives the uncertainty stated by the source.

B1: PDZ and LIM domain protein 2, residues 284 to 339; numbered along this chain, Q96JY6 (parent)
chain: HTCEKCSTSIANQAVRIQEGRYRHPGCYTCADCGLNLKMRGHFWVGDELYCEKHAR
B2: V(D)J recombination-activating protein 2, residues 415 to 491; numbered along this chain, P55895 (parent)
chain: YWITCCPTCDVDINTWVPFYSTELNKPAMIYCSHGDGHWVHAQCMDLAERTLIHLSAGSNKYYCNEHVEIARALHTP

In the first series the parent is B1. In words: abundance fitness (aPCA) (normalised: wild type 0, dead -1); higher = more abundant; growth selection in yeast, the domain comes from the species named. To be noted: Homo sapiens.
As for Q18I, the abundance fitness came to 0.228 ± 0.18.

Take C30E: the abundance fitness was -0.834 ± 0.075.

Turning to C30K, the abundance fitness is -1.13 ± 0.38.

Take E48V: the abundance fitness was -0.011 ± 0.095.

Regarding E48T, the abundance fitness is -0.286 ± 0.12.

In the case of E48S, the abundance fitness was -0.074 ± 0.11.

With E48Y, the abundance fitness was -0.235 ± 0.075.

As to A11Q, the abundance fitness was -0.253 ± 0.14.

As for C27N, the abundance fitness is -0.826 ± 0.33.

Turning to C27Y, the abundance fitness is -0.885 ± 0.22.

In the case of C27I, the abundance fitness is -0.904 ± 0.28.

As for C27A, the abundance fitness was -0.428 ± 0.087.

For the variant C27K, the abundance fitness was -0.39 ± 0.088.

With C6Q, the abundance fitness is -0.199 ± 0.16.

C6G: the abundance fitness is -0.437 ± 0.093.

For C6E, the abundance fitness was -0.382 ± 0.17.

Turning to A31E, the abundance fitness was 0.082 ± 0.12.

Turning to A31Y, the abundance fitness is -0.226 ± 0.17.

On to A31W, for which the abundance fitness is -0.052 ± 0.12.

Turning to A31H, the abundance fitness is -0.257 ± 0.1.

Regarding I17K, the abundance fitness is -0.427 ± 0.09.

In the case of I17L, the abundance fitness was -0.121 ± 0.076.

With I17Q, the abundance fitness was -0.535 ± 0.14.

Turning to I17M, the abundance fitness is -0.372 ± 0.072.

For the variant N36L, the abundance fitness is -0.145 ± 0.069.

Take N36K: the abundance fitness is -0.478 ± 0.12.

Regarding N36G, the abundance fitness is -0.093 ± 0.067.

For the variant N36F, the abundance fitness was -0.189 ± 0.093.

N36H: the abundance fitness was -0.275 ± 0.18.

With H24K, the abundance fitness is -0.193 ± 0.11.

On to M39L, for which the abundance fitness was -0.123 ± 0.075.

Take M39Y: the abundance fitness came to 0.002 ± 0.067.

On to M39G, for which the abundance fitness came out at 0.223 ± 0.055.

Turning to G41E, the abundance fitness was -0.191 ± 0.088.

On to G41L, for which the abundance fitness was -0.437 ± 0.061.

As to G41S, the abundance fitness was -0.436 ± 0.12.

Consider G41R, for which the abundance fitness is -0.216 ± 0.067.

In the case of K5G, the abundance fitness was -0.036 ± 0.057.

In the case of K5W, the abundance fitness is -0.553 ± 0.18.

Consider K5M, for which the abundance fitness is -0.05 ± 0.083.

With S7P, the abundance fitness was -0.613 ± 0.2.

With S7M, the abundance fitness was -0.083 ± 0.14.

For R16S, the abundance fitness came out at 0.112 ± 0.098.

As to R16C, the abundance fitness came to 0.32 ± 0.091.

With R16H, the abundance fitness is 0.004 ± 0.17.

With N12G, the abundance fitness was -0.408 ± 0.063.

In the case of G34N, the abundance fitness came to 0.108 ± 0.13.

For the variant G34R, the abundance fitness was -0.064 ± 0.084.

For C33A, the abundance fitness is -0.94 ± 0.072.

Consider C33S, for which the abundance fitness is -0.828 ± 0.11.

As to C33D, the abundance fitness is -0.695 ± 0.19.

Take C33P: the abundance fitness is -0.757 ± 0.16.

Regarding C33T, the abundance fitness is -0.747 ± 0.1.

Consider L49N, for which the abundance fitness is -0.942 ± 0.47.

For L49H, the abundance fitness is -0.343 ± 0.062.

With L49M, the abundance fitness is -0.205 ± 0.13.

Take R56G: the abundance fitness amounted to 0.068 ± 0.088.

Turning to R56E, the abundance fitness was 0.263 ± 0.16.

Consider D32R, for which the abundance fitness turned out to be 0.124 ± 0.077.

D32L: the abundance fitness is -0.099 ± 0.075.

As to D32T, the abundance fitness turned out to be 0.057 ± 0.061.

Turning to D32W, the abundance fitness was -0.235 ± 0.06.

Turning to D32Q, the abundance fitness was -0.336 ± 0.096.

With C3T, the abundance fitness is -0.586 ± 0.09.

For the variant C3D, the abundance fitness is -1.02 ± 0.31.

Take H42C: the abundance fitness is -0.005 ± 0.14.

Take H42E: the abundance fitness amounted to 0.16 ± 0.08.

As for H42I, the abundance fitness was -0.282 ± 0.24.

With H42Q, the abundance fitness is -0.032 ± 0.11.

For the variant H42Y, the abundance fitness was -0.393 ± 0.12.

With F43M, the abundance fitness was -0.208 ± 0.13.

With F43V, the abundance fitness was -0.423 ± 0.093.

With R40T, the abundance fitness was -0.009 ± 0.1.

On to R40D, for which the abundance fitness is 0.027 ± 0.16.

Consider R40P, for which the abundance fitness was 0.14 ± 0.13.

Take L37G: the abundance fitness was -0.288 ± 0.075.

For the variant L37M, the abundance fitness is -0.178 ± 0.1.

Turning to L37R, the abundance fitness is -0.565 ± 0.076.

For the variant L37D, the abundance fitness is -0.249 ± 0.14.

L37Y: the abundance fitness is -0.38 ± 0.17.

Turning to H1R, the abundance fitness is -0.222 ± 0.11.

With V45C, the abundance fitness was -0.242 ± 0.16.

Consider T8A, for which the abundance fitness was 0.308 ± 0.06.

With T8K, the abundance fitness was determined as 0.255 ± 0.066.

T8S: the abundance fitness was determined as 0.139 ± 0.086.

Take E52K: the abundance fitness was -0.226 ± 0.095.

On to E52C, for which the abundance fitness was -0.246 ± 0.1.

G26P: the abundance fitness was -0.016 ± 0.082.

On to D47N, for which the abundance fitness is -0.11 ± 0.14.

Turning to W44K, the abundance fitness is -0.208 ± 0.14.

Regarding W44I, the abundance fitness came to 0.352 ± 0.14.

I10L: the abundance fitness is -0.413 ± 0.066.

Take I10Q: the abundance fitness was -0.242 ± 0.083.

In the case of I10V, the abundance fitness was -0.187 ± 0.057.

Turning to I10R, the abundance fitness is -0.445 ± 0.075.

With I10K, the abundance fitness was -0.488 ± 0.13.

For C51H, the abundance fitness is -0.827 ± 0.18.

Take C51Y: the abundance fitness is -0.94 ± 0.3.

With C51A, the abundance fitness is -0.669 ± 0.16.

Turning to S9F, the abundance fitness is -1.09 ± 0.28.

For S9V, the abundance fitness was -0.485 ± 0.08.

Take R23W: the abundance fitness was -0.431 ± 0.21.

As for A55M, the abundance fitness is -0.066 ± 0.091.

In the case of T29C, the abundance fitness was -0.23 ± 0.064.

In the case of T29M, the abundance fitness was -0.354 ± 0.16.

On to T29G, for which the abundance fitness is -0.198 ± 0.067.

As to T29A, the abundance fitness is -0.103 ± 0.11.

Take T29W: the abundance fitness is -0.758 ± 0.12.

On to R21V, for which the abundance fitness was determined as 0.11 ± 0.099.

For Y28S, the abundance fitness is -0.179 ± 0.068.

Turning to Y28R, the abundance fitness was -0.473 ± 0.06.

On to Y28D, for which the abundance fitness is -0.772 ± 0.23.

For Y28K, the abundance fitness is -0.434 ± 0.14.

Regarding Y28M, the abundance fitness was -0.13 ± 0.11.

Y28T: the abundance fitness is 0.116 ± 0.11.

In the case of E4A, the abundance fitness is -0.245 ± 0.068.

In the case of E4P, the abundance fitness was -0.592 ± 0.065.

Take V15P: the abundance fitness is -0.654 ± 0.14.

In the case of V15K, the abundance fitness was found to be 0.052 ± 0.13.

In the case of V15M, the abundance fitness was -0.283 ± 0.12.

Regarding V15E, the abundance fitness is 0.272 ± 0.13.

Consider V15R, for which the abundance fitness was -0.596 ± 0.12.

For V15Q, the abundance fitness is -0.115 ± 0.1.

As for G20R, the abundance fitness was -0.136 ± 0.063.

As for K53C, the abundance fitness is -0.377 ± 0.16.

For the variant K53T, the abundance fitness stood at 0.037 ± 0.12.

With K53I, the abundance fitness was -0.275 ± 0.18.

Consider Q13C, for which the abundance fitness is -0.216 ± 0.14.

As to Q13A, the abundance fitness was -0.399 ± 0.14.

With Q13D, the abundance fitness came to 0.448 ± 0.14.

In the case of G46V, the abundance fitness is -0.226 ± 0.081.

For the variant G46Y, the abundance fitness worked out at 0.044 ± 0.17.

Consider G46M, for which the abundance fitness was -0.276 ± 0.14.

As for G46N, the abundance fitness came out at 0.112 ± 0.13.

For G46H, the abundance fitness was -0.238 ± 0.19.

On to T2V, for which the abundance fitness is -0.685 ± 0.13.

For T2C, the abundance fitness was -0.323 ± 0.16.

As to T2H, the abundance fitness worked out at 0.144 ± 0.17.

Take T2L: the abundance fitness was -0.834 ± 0.12.

For the variant T2K, the abundance fitness was 0.003 ± 0.08.

As for P25E, the abundance fitness came out at 0.402 ± 0.082.

Consider P25F, for which the abundance fitness is -0.492 ± 0.1.

Consider P25T, for which the abundance fitness is -0.09 ± 0.095.

P25K: the abundance fitness was -0.003 ± 0.092.

Turning to Y22M, the abundance fitness is -0.532 ± 0.13.

With A14R, the abundance fitness is -0.466 ± 0.071.

For the variant A14W, the abundance fitness was -0.182 ± 0.12.

As for A14I, the abundance fitness was -0.07 ± 0.099.

For the variant A14S, the abundance fitness is -0.179 ± 0.079.

For K38H, the abundance fitness was -0.197 ± 0.16.

Regarding K38N, the abundance fitness is -0.124 ± 0.15.

In the case of K38E, the abundance fitness was 0.311 ± 0.071.

As to L35C, the abundance fitness was -0.214 ± 0.14.

With L35Y, the abundance fitness amounted to 0.01 ± 0.12.

In the case of L35S, the abundance fitness was determined as 0.005 ± 0.07.

As to L35N, the abundance fitness was determined as 0.062 ± 0.14.

L35G: the abundance fitness amounted to 0.053 ± 0.081.

Consider L35M, for which the abundance fitness came to 0.102 ± 0.12.

For Y50M, the abundance fitness is 0.077 ± 0.093.

Take H54V: the abundance fitness was -0.612 ± 0.067.

Regarding H54P, the abundance fitness is -0.771 ± 0.18.

Consider H54W, for which the abundance fitness was -0.856 ± 0.081.

Consider E19R, for which the abundance fitness is -0.12 ± 0.064.

Consider E19G, for which the abundance fitness is -0.375 ± 0.1.

Regarding E19A, the abundance fitness was -0.165 ± 0.061.

For E19Y, the abundance fitness is -0.549 ± 0.089.

The variants in another series derive from B2. The series is described as above. To be noted: Homo sapiens.
Regarding D12P, the abundance fitness was -0.392 ± 0.21.
